From article PMC3170320, “Minimal Antizyme Peptide Fully Functioning in the Binding and Inhibition of Ornithine Decarboxylase and Antizyme Inhibitor” (PLoS ONE, 2011)

Legend:
human AZI = test: AZ peptide-AZI complex size distribution by analytical ultracentrifugation; format: binding; settings: Table 2
Experimental: A Beckman Optima XL-A analytical ultracentrifuge was used for sedimentation velocity experiments. Reference and sample sectors in the centerpiece were filled with buffer (400 µl) and sample protein (0.3 mg/mL, 380 µl), respectively, and then the cell was built up in an An-50 Ti rotor. Sedimentation velocity experiments were performed at 20°C with a rotor speed of 42,000 rpm. The data were traced by absorbance at 280 nm in continuous mode, with a time interval of 420 s and a step size of 0.002 cm. A total of 20–30 scans at different time points were collected and fitted to a continuous size distribution model using the program SEDFIT [54]–[55]. All size distributions were calculated at 0.1 to 20 S with a confidence level of p = 0.95 and a resolution N of 200.
In order to determine the dissociation constants (K d) of the AZ peptide-ODC and AZ peptide-AZI complexes, sedimentation velocity experiments were performed at different concentrations of AZ or AZ peptide with a constant concentration of human ODC or AZI. The K d values of the AZ peptide-ODC and AZ peptide-AZI complexes were calculated by a global fitting of all sedimentation data in the AB hetero-association model in the SEDPHAT program [56]–[57]. The partial specific volumes of the proteins, the solvent densities, and the viscosity were calculated by the SEDNTERP program. […]

AZ peptide-inhibited ODC = test: Rescue of AZ-inhibited ODC enzyme activity by AZI; format: biochemical, human; settings: Figure 4
Experimental: Figure 4 Relative ODC enzyme activities in the presence of AZ and AZI. ODC enzymes equilibrated with equimolar AZI were inhibited by various concentrations of AZ peptides. The concentrations of AZI and ODC were fixed at 18.9 µg/mL and 20 µg/mL, respectively (the ratio of AZI monomer versus ODC monomer was fixed at 1). Panels A–H show the inhibition curves of ODC for each AZ peptide in the absence (closed circles) and in the presence (open circles) of AZI.
For enzyme rescue experiments with AZI, the ODC enzyme was first pre-incubated with AZ at a molar ratio of 3.5 AZ monomers to 1 ODC monomer to achieve 80% enzyme inhibition. The inhibited ODC activity was recovered by increasing the AZI concentration.

AZ = settings: ref [20], [46]–[48]; cited from earlier work
Excerpt: Another protein that regulates ODC by binding to AZ is called antizyme inhibitor (AZI). AZI is homologous to ODC, but lacks ODC enzymatic activity, [43]–[46]. […] AZI can bind to all isoforms of mammalian AZ [32], [42].

ODC = settings: cited from earlier work
Excerpt: (§1) There are at least four AZ isozymes with different binding affinities for ODC [31]–[32]. Isoform 1, AZ-1, is present in all tissues and is the major isoform that participates in ODC degradation. […] The C-terminal region of AZ-1 interacts with ODC to inhibit enzyme activity, and the N-terminal region of AZ-1 controls the degradation of ODC [34]–[36]. AZ-2 has a distribution similar to that of AZ-1 in all of the tissues and cells examined thus far, but its expr ...

ODC degradation = settings: cited from earlier work
Excerpt: as §1

B1: Antizyme inhibitor (protein)
chain: MKGFIDDANYSVGLLDEGTNLGNVIDNYVYEHTLTGKNAFFVGDLGKIVKKHSQWQNVVAQIKPFYTVKCNSAPAVLEILAALGTGFACSSKNEMALVQELGVPPENIIYISPCKQVSQIKYAAKVGVNILTCDNEIELKKIARNHPNAKVLLHIATEDNIGGEEGNMKFGTTLKNCRHLLECAKELDVQIIGVKFHVSSACKESQVYVHALSDARCVFDMAGEIGFTMNMLDIGGGFTGTEFQLEEVNHVISPLLDIYFPEGSGVKIISEPGSYYVSSAFTLAVNIIAKKVVENDKFPSGVEKTGSDEPAFMYYMNDGVYGSFASKLSEDLNTIPEVHKKYKEDEPLFTSSLWGPSCDELDQIVESCLLPELNVGDWLIFDNMGADSFHEPSAFNDFQRPAIYYMMSFSDWYEMQDAGITSDSMMKNFFFVPSCIQLSQEDSFSAEA
modifications: left off: His6, N-terminal, state not stated
In the case of B1, the “Affinity of AZI for AZ peptides versus ODC (in words)” value (human AZI) is listed as “can bind to AZ peptides with a higher affinity than ODC”, the “Rescue of ODC enzyme activity by AZI (in words)” value (AZ peptide-inhibited ODC) is listed as “can rescue AZ peptide-inhibited ODC enzyme activity” and the “Affinity of AZI for AZ” value (AZ) is listed as “binds to AZ with a higher affinity than ODC”.

B2: AZ-3: AZ isozyme 3, germ cells of testes (protein, UniProt Q9UMX2 1-235, looked up)
Ornithine decarboxylase …: MPCKRCRPSVYSLSYIKRGKTRNYLYPIWSPYAYYLYCYKYRITLREKMLPRCYKSITYKEEEDLTLQPRSCLQCSESLVGLQEGKSTEQGNHDQLKELYSAGNLTVLATDPLLHQDPVQLDFHFRLTSQTSAHWHGLLCDRRLFLDIPYQALDQGNRESLTATLEYVEEKTNVDSVFVNFQNDRNDRGALLRAFSYMGFEVVRPDHPALPPLDNVIFMVYPLERDVGHLPSEPP
For B2, the “Inhibition of ODC activity, AZ-3” value (ODC; ref [41]) is given as “poorly inhibits ODC activity” and the “ODC degradation, AZ-3” value (ODC degradation; ref [41]) is given as “fails to stimulate ODC degradation”.

B3: AZ-2: AZ isozyme 2, distribution similar to AZ-1, lower expression level (protein, UniProt O95190 1-189, looked up)
Ornithine decarboxylase …: MINTQDSSILPLSNCPQLQCCRHIVPGPLWCSDAPHPLSKIPGGRGGGRDPSLSALIYKDEKLTVTQDLPVNDGKPHIVHFQYEVTEVKVSSWDAVLSSQSLFVEIPDGLLADGSKEGLLALLEFAEEKMKVNYVFICFRKGREDRAPLLKTFSFLGFEIVRPGHPCVPSRPDVMFMVYPLDQNLSDED
For B3, the “Inhibition of ODC activity, AZ-2” value (ODC; ref [38]–[39]) is given as “can inhibit ODC enzyme activity” and the “ODC degradation, AZ-2” value (ODC degradation; ref [38]–[39]) is given as “does not promote ODC degradation”.
